The text below walks through data of patent publication US20200199196A1 (WASHINGTON UNIVERSITY, published 2020).

In test [1] the target is T1, RANK on mouse bone marrow macrophages (BMMs) (mouse, UniProt O35305 31-625).
T1 sequence (looked up): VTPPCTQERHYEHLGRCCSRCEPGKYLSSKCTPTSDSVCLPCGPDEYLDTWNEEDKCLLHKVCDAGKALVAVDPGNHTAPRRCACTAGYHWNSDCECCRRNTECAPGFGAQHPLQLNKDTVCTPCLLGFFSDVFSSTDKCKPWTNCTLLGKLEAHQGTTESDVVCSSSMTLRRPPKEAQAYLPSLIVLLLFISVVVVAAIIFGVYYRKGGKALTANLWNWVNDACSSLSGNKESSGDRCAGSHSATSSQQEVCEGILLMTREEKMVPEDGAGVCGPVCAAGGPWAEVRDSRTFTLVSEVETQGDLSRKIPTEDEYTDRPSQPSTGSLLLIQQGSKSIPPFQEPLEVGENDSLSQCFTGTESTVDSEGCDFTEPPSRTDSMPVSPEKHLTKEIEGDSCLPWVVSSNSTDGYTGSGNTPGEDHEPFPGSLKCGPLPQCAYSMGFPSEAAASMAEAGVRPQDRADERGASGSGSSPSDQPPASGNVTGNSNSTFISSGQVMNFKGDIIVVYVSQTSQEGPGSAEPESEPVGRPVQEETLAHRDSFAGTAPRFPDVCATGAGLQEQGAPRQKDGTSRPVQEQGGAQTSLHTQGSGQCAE
The experiment in a line: cell-based or functional assay.

For test [2], the target named is T2, monomeric RANK (monomeric fragment of RANK) (UniProt O35305 31-214).
T2 chain: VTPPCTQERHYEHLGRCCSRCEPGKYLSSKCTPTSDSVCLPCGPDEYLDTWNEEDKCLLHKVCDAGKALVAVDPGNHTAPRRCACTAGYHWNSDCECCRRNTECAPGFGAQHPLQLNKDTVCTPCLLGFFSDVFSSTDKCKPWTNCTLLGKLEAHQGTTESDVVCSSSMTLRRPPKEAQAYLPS
The test is described as follows: yeast surface display titration.

The target in test [3] is T3, monomeric OPG (monomeric fragment of OPG) (UniProt O08712 22-197).
T3 chain: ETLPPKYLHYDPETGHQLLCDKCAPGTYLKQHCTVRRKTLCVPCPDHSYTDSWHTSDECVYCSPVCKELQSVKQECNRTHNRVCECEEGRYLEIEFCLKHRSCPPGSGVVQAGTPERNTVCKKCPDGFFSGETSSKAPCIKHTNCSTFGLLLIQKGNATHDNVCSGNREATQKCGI
The test is described as follows: yeast surface display titration.

Test [4] concerns the target T4, monomeric OPG (monomeric fragment of OPG) (UniProt O08712 22-197, limits assumed).
T4 construct: also called OPG-6xHis; unlabeled OPG
T4 sequence (looked up): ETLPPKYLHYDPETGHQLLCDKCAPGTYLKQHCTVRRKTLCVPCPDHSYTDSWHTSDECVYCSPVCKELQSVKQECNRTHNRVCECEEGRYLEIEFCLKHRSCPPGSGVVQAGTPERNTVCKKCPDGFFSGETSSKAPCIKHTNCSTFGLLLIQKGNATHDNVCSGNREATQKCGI
The experiment in a line: SPR (FIG. 11).

Test [5] concerns the target T2, monomeric RANK (monomeric fragment of …). The test is described as follows: SPR.
Test [6] addresses T5, monomeric RANK (monomeric fragment of RANK) (UniProt O35305 31-214, limits assumed).
T5 construct: The monomeric RANK of the SPR and the RANK-6xHis of the yeast display are treated here as one molecule; also called RANK-6xHis; RANK-6His
T5 sequence (looked up): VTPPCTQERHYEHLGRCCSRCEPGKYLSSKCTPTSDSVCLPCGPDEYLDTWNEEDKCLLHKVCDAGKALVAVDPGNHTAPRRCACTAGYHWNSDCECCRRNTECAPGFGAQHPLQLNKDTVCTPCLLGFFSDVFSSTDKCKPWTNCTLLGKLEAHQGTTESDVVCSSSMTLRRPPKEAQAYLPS
The test is described as follows: SPR, htRANKL coupled to the chip, monomeric RANK as analyte (FIG. 3C).

In test [7] the target is T2, monomeric RANK (monomeric fragment of …). The experiment in a line: SPR.
In test [8] the target is T3, monomeric OPG (monomeric fragment of …). The test is described as follows: SPR.
Test [9] has the same target. The experiment in a line: SPR.
Test [10] has as its target T4, monomeric OPG (monomeric fragment of …). The experiment in a line: yeast surface display, flow cytometry titration (FIG. 3B).
Test [11] concerns the target T5, monomeric RANK (monomeric fragment of …). The test is described as follows: SPR, htRANKL variant coupled to the chip, monomeric RANK as analyte (FIG. 3C).

B1: double-block, RANK^high scRANKL (ligand)
chain: QPFAHLTINAASIPSGSHKVTLSSWYHDRGWAKISNMTLSNGKLRVNQDGFYYLYANISFRGGSHHETSGSVPTDYLHLMVYVVKTSEKIPSSHNLMKGGSTKNWSGNSEFHFYSINVGGFFKLRAGEEISIQVSNPSLLDPDQDATYFGAFKVQDIDGGSGGGSGGGSGQPFAHLTINAASIPSGSHKVTLSSWYHDRGWAKISNMTLSNGKLRVNQDGFYYLYANISFRGGSHHETSGSVPTDYLHLMVYVVKTSEKIPSSHNLMKGGSTKNWSGNSEFHFYSINVGGFFKLRAGEEISIQVSNPSLLDPDQDATYFGAFKVQDIDGGSGGGSGGGSGQPFAHLTINAASIPSGSHKVTLSSWYHDRGWAEISNMTLSNGKLRVNQDGFYYLYANISFRHHETSGSVPTDYLHLMVYVVKTSEKIPSSHNLMKGGSTKNWSGNSEYYFYSINVGGFFKLRAGEEISIQVSNPSLLDPDQDATYFGAFKVQDIDSSGRENLYFQ
With B1, the “IC50 of inhibition of signaling / osteoclast formation stimulated by wild-type htRANKL (TRAP activity, FIG. 4D)” value in test [1] was about 10 nM.

B2: single-block, RANK^high scRANKL (ligand)
chain: QPFAHLTINAASIPSGSHKVTLSSWYHDRGWAKISNMTLSNGKLRVNQDGFYYLYANISFRGGSHHETSGSVPTDYLHLMVYVVKTSEKIPSSHNLMKGGSTKNWSGNSEFHFYSINVGGFFKLRAGEEISIQVSNPSLLDPDQDATYFGAFKVQDIDGGSGGGSGGGSGQPFAHLTINAASIPSGSHKVTLSSWYHDRGWAEISNMTLSNGKLRVNQDGFYYLYANISFRHHETSGSVPTDYLHLMVYVVKTSEKIPSSHNLMKGGSTKNWSGNSEYYFYSINVGGFFKLRAGEEISIQVSNPSLLDPDQDATYFGAFKVQDIDGGSGGGSGGGSGQPFAHLTINAASIPSGSHKVTLSSWYHDRGWAEISNMTLSNGKLRVNQDGFYYLYANISFRHHETSGSVPTDYLHLMVYVVKTSEKIPSSHNLMKGGSTKNWSGNSEYYFYSINVGGFFKLRAGEEISIQVSNPSLLDPDQDATYFGAFKVQDIDSSGRENLYFQ
On to B2, for which the “IC50 of inhibition of signaling / osteoclast formation stimulated by wild-type htRANKL (TRAP activity, FIG. 4D)” value in test [1] is 0.2 nM.

B3: K/Q (protein)
chain: MRRASRDYGKYLRSSEEMGSGPGVPHEGPLHPAPSAPAPAPPPAASRSMFLALLGLGLGQVVCSIALFLYFRAQMDPNRISEDSTHCFYRILRLHENADLQDSTLESEDTLPDSCRRMKQAFQGAVQKELQHIVGPQRFSGAPAMMEGSWLDVAQRGKPEAQPFAHLTINAASIPSGSHKVTLSSWYHDRGWAEISNMTLSNGKLRVNQDGFYYLYANICFRHHETSGSVPTDYLHLMVYVVKTSIKIPSSHNLMKGGSTKNWSGNSEFHFYSINVGGFFKLRAGEEISIQVSNPSLLDPDQDATYFGAFKVQDID
In turn, B3 gave a dissociation constant Kd in [2] of about 69.7 nM.

B4: H270Y (protein)
chain: MRRASRDYGKYLRSSEEMGSGPGVPHEGPLHPAPSAPAPAPPPAASRSMFLALLGLGLGQVVCSIALFLYFRAQMDPNRISEDSTHCFYRILRLHENADLQDSTLESEDTLPDSCRRMKQAFQGAVQKELQHIVGPQRFSGAPAMMEGSWLDVAQRGKPEAQPFAHLTINAASIPSGSHKVTLSSWYHDRGWAKISNMTLSNGKLRVNQDGFYYLYANICFRHHETSGSVPTDYLQLMVYVVKTSIKIPSSHNLMKGGSTKNWSGNSEFYFYSINVGGFFKLRAGEEISIQVSNPSLLDPDQDATYFGAFKVQDID
As to B4, the results for the Kd in [2] and in [3] were about 465 nM and about 276 nM, respectively.

B5: F269Y (protein)
chain: MRRASRDYGKYLRSSEEMGSGPGVPHEGPLHPAPSAPAPAPPPAASRSMFLALLGLGLGQVVCSIALFLYFRAQMDPNRISEDSTHCFYRILRLHENADLQDSTLESEDTLPDSCRRMKQAFQGAVQKELQHIVGPQRFSGAPAMMEGSWLDVAQRGKPEAQPFAHLTINAASIPSGSHKVTLSSWYHDRGWAKISNMTLSNGKLRVNQDGFYYLYANICFRHHETSGSVPTDYLQLMVYVVKTSIKIPSSHNLMKGGSTKNWSGNSEYHFYSINVGGFFKLRAGEEISIQVSNPSLLDPDQDATYFGAFKVQDID
B5: the Kd in test [3] was about 33.3 nM.

B6: Q236H (protein)
chain: MRRASRDYGKYLRSSEEMGSGPGVPHEGPLHPAPSAPAPAPPPAASRSMFLALLGLGLGQVVCSIALFLYFRAQMDPNRISEDSTHCFYRILRLHENADLQDSTLESEDTLPDSCRRMKQAFQGAVQKELQHIVGPQRFSGAPAMMEGSWLDVAQRGKPEAQPFAHLTINAASIPSGSHKVTLSSWYHDRGWAKISNMTLSNGKLRVNQDGFYYLYANICFRHHETSGSVPTDYLHLMVYVVKTSIKIPSSHNLMKGGSTKNWSGNSEFHFYSINVGGFFKLRAGEEISIQVSNPSLLDPDQDATYFGAFKVQDID
For B6, the dissociation constant (Kd) in test [2] was about 346 nM.

B7: K194E (protein)
chain: MRRASRDYGKYLRSSEEMGSGPGVPHEGPLHPAPSAPAPAPPPAASRSMFLALLGLGLGQVVCSIALFLYFRAQMDPNRISEDSTHCFYRILRLHENADLQDSTLESEDTLPDSCRRMKQAFQGAVQKELQHIVGPQRFSGAPAMMEGSWLDVAQRGKPEAQPFAHLTINAASIPSGSHKVTLSSWYHDRGWAEISNMTLSNGKLRVNQDGFYYLYANICFRHHETSGSVPTDYLQLMVYVVKTSIKIPSSHNLMKGGSTKNWSGNSEFHFYSINVGGFFKLRAGEEISIQVSNPSLLDPDQDATYFGAFKVQDID
B7: the equilibrium dissociation constant (Kd) in test [3] is about 71.7 nM.

B8: WT-SM htRANKL (homotrimeric mouse RANKL with the solubility mutations C220S/I246E) (ligand)
chain: QPFAHLTINAASIPSGSHKVTLSSWYHDRGWAKISNMTLSNGKLRVNQDGFYYLYANISFRHHETSGSVPTDYLQLMVYVVKTSEKIPSSHNLMKGGSTKNWSGNSEFHFYSINVGGFFKLRAGEEISIQVSNPSLLDPDQDATYFGAFKVQDID
notes: The format differs by assay; also called WT-SM RANKL; WT htRANKL
As for B8, in test [4], the “fold decrease in binding against WT htRANKL without the solubility mutations” value is about 10 fold. Besides, the equilibrium dissociation constant (Kd) was 1400 nM in test [5]; 1400 nM in test [7]; 30.5 nM in [8]; about 32.8 nM in [3]; 30.5 nM in test [9]. Moreover, in test [6], the “t1/2 (dissociation time)” value came to 0.05 min.

B9: wild-type homotrimeric RANKL without the solubility mutations (WT htRANKL as compared with WT-SM htRANKL in FIG. 5 and FIG. 11) (ligand)
chain: QPFAHLTINAASIPSGSHKVTLSSWYHDRGWAKISNMTLSNGKLRVNQDGFYYLYANICFRHHETSGSVPTDYLQLMVYVVKTSIKIPSSHNLMKGGSTKNWSGNSEFHFYSINVGGFFKLRAGEEISIQVSNPSLLDPDQDATYFGAFKVQDID
Consider B9, for which the Kd in test [5] turned out to be 1230 nM; in test [9], 4.75 nM.

B10: KQF htRANKL (K194E, Q236H, F269Y) (ligand)
chain: QPFAHLTINAASIPSGSHKVTLSSWYHDRGWAEISNMTLSNGKLRVNQDGFYYLYANISFRHHETSGSVPTDYLHLMVYVVKTSEKIPSSHNLMKGGSTKNWSGNSEYHFYSINVGGFFKLRAGEEISIQVSNPSLLDPDQDATYFGAFKVQDID
In turn, B10 displayed a Kd in test [2] of about 23.6 nM.

B11: KQFH htRANKL (K194E, Q236H, F269Y, H270Y) (ligand)
chain: QPFAHLTINAASIPSGSHKVTLSSWYHDRGWAEISNMTLSNGKLRVNQDGFYYLYANISFRHHETSGSVPTDYLHLMVYVVKTSEKIPSSHNLMKGGSTKNWSGNSEYYFYSINVGGFFKLRAGEEISIQVSNPSLLDPDQDATYFGAFKVQDID
notes: also called RANK^high variant
As to B11, in test [10], the binding result was “no binding”. The molecule also came in with a dissociation constant Kd in test [7] of 3.37 nM. Moreover, in test [11], the “fold greater affinity than wild-type htRANKL” value is about 500 fold, the “fold longer dissociation time than WT htRANKL” value is 200 fold and the “t1/2 (dissociation time)” value turned out to be 11.2 min. The same molecule displayed a Kd in [2] of about 1.4 nM.
